Data taken from US20180057551A1 (AMYLONIX, published 2018).

Target: T1, anti-ABD goat antibody (produced in-house)
T1 construct: also called Anti-ABD surface
Experiment: SPR Biacore 2000, periplasmic sample over immobilised anti-ABD goat antibody
Protocol: A selection of Aβ peptide binding polypeptides was subjected to an analysis of the response against biotinylated hAβ₁₋₄₀ using a Biacore 2000 instrument (GE Healthcare). Biotinylated anti-ABD goat antibody (produced in-house) and N-terminally biotinylated hAβ₁₋₄₀ (AnaSpec cat. no. AS-24648) were immobilized in separate flow cells on a streptavidin coated chip (Biacore Sensor Chip SA, cat. no. BR100032) using HBS-EP as running buffer (0.01 M HEPES pH 7.4, 0.15 M NaCl, 3 mM EDTA, 0.005% v/v Surfactant P20, GE Healthcare, cat. no. BR100188). The ligand immobilization levels on the surfaces were approximately 2000 RU for the anti-ABD antibody and 225 RU for hAβ₁₋₄₀. One flow cell surface on the chip was used as blank during analyte injections. HBS-EP was used as running buffer and the flow rate was 25 μl/min. The analytes, i.e. periplasmic preparations of Aβ peptide binding polypeptides as described above, were each diluted 15× in HBS-EP buffer and injected for 10 min, followed by dissociation in running buffer for 5 min. After dissociation, the surfaces were regenerated with 2 pulses of 10 mM glycin pH 2.0. […]
The interactions of a subset of Z variants with anti-ABD goat antibody and hAβ₁₋₄₀ were analyzed in a Biacore instrument by injecting dilutions of periplasmic samples.

B1: albumin binding domain GA3 from streptococcal Protein G (ABD), periplasmic control (other)
chain: LAEAKVLANRELDKYGVSDYYKNLINNAKTVEGVKALIDEILAALP
notes: periplasm containing ABD only; also called negative control; blank control
  Response RU: 19.8 RU
